One substance from article PMC6525113 can be followed below.

For this assay, the target named is Human methylmalonyl-CoA epimerase, wild-type (human) (UniProt Q96PE7). The assay is described as follows: not stated; solution data (Supplemental Fig. S2).

As to “Human methylmalonyl-CoA epimerase, wild-type (from UniProt Q96PE7 45-176) (enzyme)”, the stoichiometry N (commonly a count of units in the complex or per binding partner) came out at 2.
